Here are results for 1 protein from article PMC10767740, “Recombinant Full-Length TDP-43 Oligomers Retain Their Ability to Bind RNAs, Are Not Toxic, and Do Not Seed TDP-43 Aggregation in Vitro” (ACS Chemical Neuroscience, 2023).

The series concerns the molecule itself. Kind of series: ThT aggregation kinetics + TEM; 5 μM core peptide, 20 μM ThT, with or without 2.5% fibrillar seeds of the same peptide; 25 °C, 40 h, shaken 5 s at 100 rpm before each reading; TEM at the end.

B1: TDP-43 core peptide 279–360 (peptide, UniProt Q13148 279-360, looked up)
chain: NPGGFGNQGGFGNSRGGGAGLGNNQGSNMGGGMNFGAFSINPAMMAAAQAALQSSWGMMGMLASQQNQSGPSGNNQNQGNMQ
notes: also called amyloid core peptide; source: lyophilized, disaggregated in HFIP/TFA
As to B1, the binding result was “binds”.
